Data from patent publication US12514920B1, “Respiratory syncytial virus mRNA vaccine, and preparation method therefor and use thereof” (Hangzhou Tianlong Pharmaceutical Co., Ltd., priority 2024, dated 2026).

Assays:
[1] = system: RSV pre-F antibody (3C12); test: Binding of epitope Φ of RSV F antigen mutants by flow cytometry; conditions: for RSV pre-F antibody (3C12) Epitope Φ (%) binding rate: flow cytometry; for Φ/II (%): ratio of epitope Φ (3C12) to epitope II (11A9) binding rate
In short: (§1)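 293T cells were transfected with mRNA-LNP (300 ng mRNA) encoding the RSV F mutants and harvested after 16 h. Cells were stained with fluorescent 3C12 (pre-F-specific epitope Φ) or 11A9 (epitope II, pre-F and post-F) for 2 h at 4 °C in the dark, then washed and read by flow cytometry on 1×10^4 cells per measurement.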

[2] = system: RSV F antibody (11A9); test: Binding of epitope II of RSV F antigen mutants by flow cytometry; conditions: epitope II, antibody 11A9
In short: as §1

[3] = system: RSV pre-F antibody (3C12); format: physicochemical; conditions: ELISA binding to 3C12; for Stress resistance parameter, Osmotic pressure (mM) 3000: high osmotic pressure 3000 mM; for Stress resistance parameter, Osmotic pressure (mM) 3000 / Stress resistance parameter, Osmotic pressure (mM) 10: room temperature; for Stress resistance parameter, Osmotic pressure (mM) 3000 / Stress resistance parameter, Osmotic pressure (mM) 10 / Stress resistance parameter, pH 3.5 / Stress resistance parameter, pH 10: 60 min; for Stress resistance parameter, Temperature (° C.) 50: incubation at 50° C. for 60 min; for Stress resistance parameter, Osmotic pressure (mM) 10: low osmotic pressure 10 mM; for Stress resistance parameter, pH 3.5: pH 3.5, room temperature; for Stress resistance parameter, pH 10: pH 10, room temperature; for Stress resistance parameter, Temperature (° C.) 4: storage at 4° C. for one week
Excerpt: To investigate the stability of the RSV F antigen mutants under different pH, temperature, osmotic pressure and other conditions, the mutants were subjected to stress tests under different treatment conditions in this example.
• 293T cells (purchased from ATCC cell bank); • Primary antibody: RSV pre-F antibody (3C12), epitope Φ (purchased from Suzhou Novoprotein Scientific Co., Ltd. (hereinafter referred to as Novoprotein), Cat. No.: DA101); • Standard: RSV pre-F trimer protein (Novoprotein, Cat. No.: DRA230); • Secondary antibody: peroxidase AffiniPure goat anti-human IgG (H+L) (purchased from Yeasen Biotechnology (Shanghai) Co., Ltd. (hereinafter referred to as Yeasen), Cat. No.: N/A); • Experimental group: mRNA vaccines after screening in Example 4;
Coating: A 96-well microplate was coated with a working solution and incubated at 2 to 8° C. for 16 to 20 h.
Plate washing: Phosphate buffered saline PBST was added to each well, and the plate was washed 5 times using a plate washer and patted dry on absorbent paper.
Blocking: After a blocking solution was added, the […] were placed on a constant temperature microplate shaker and incubated at 400 rpm for 1.5 h at 37° C.
Plate washing: PBST was added to each well, and the plate was washed 5 times using a plate washer and patted dry on absorbent paper.
Primary antibody incubation: A primary antibody dilution was added to each well, and the plate was sealed with a sealing film, and then incubated at 400 rpm for 1.5 h at 37° C.
Secondary antibody incubation: A secondary antibody dilution was added to each well, and the plate was sealed with a sealing film, and then incubated at 400 rpm for 45 min at 37° C.
Color development: A chromogenic solution was added, and the plate was sealed with a sealing film, and then placed on a constant temperature microplate shaker and incubated at 400 rpm for 25 min at 37° C.
Reaction stopping: After the color development was completed, a stop buffer was added at […] to the microplate to stop the reaction.
Plate reading: Absorbance values (OD values) were read within 5 min using a multimode microplate reader, with dual wavelengths of 450 nm and 630 nm set.
In this example, stability screening of the mutants through different treatment conditions was defined as a stress test, including storage at 4° C. for one week; incubation at 50° C. for 60 min; treatment at room temperature under low osmotic pressure and high osmotic pressure conditions for 60 min; treatment at room temperature under acid and base conditions for 60 min. The binding of the mutants to the RSV pre-F antibody (3C12) recognizing the epitope Φ was detected by ELISA.

Molecule | RSV pre-F antibody (3C12) Epitope Φ (%) binding rate [1] [%] | Φ/II (%) [1] [%] | RSV F antibody (11A9) Epitope II (%) binding rate [2] [%] | Stress resistance parameter, Osmotic pressure (mM) 3000 [3] | Stress resistance parameter, Temperature (° C.) 50 [3] | Stress resistance parameter, Osmotic pressure (mM) 10 [3] | Stress resistance parameter, pH 3.5 [3] | Stress resistance parameter, pH 10 [3] | Stress resistance parameter, Temperature (° C.) 4 [3]
YK-RSV-016 (protein) QNITEEFYCSTCSAVSKGYLGALRTGWYTSVILIELSNIKENKCNGTDAKVKLIKQELDKYKNAVTDLQLLMQSTPATGSGSAICSGVAVSKVLHLEGEVNKIKSALLSTNKAVVSLSNGVSVLTFKVLDLKNYIDKQLLPIVNKQSCSIPNIETVIEFQQKNNRLLEITREFSVNAGVTTPVSTYMLTNSELLSLINDMPITNDQKKLMSNNVQIVRQQSYSIMSIIKEEVLAYVVQLPLYGVIDTPCWKLHTSPLCTTNTKEGSNICLTRTDRGWYCDNAGSVSFFPQAETCKVQSNRVFCDTMNSRTLPSEVNLCNVDIFNPKYDCKIMTSKTDVSSSVITSLGAIVSCYGKTKCTASNKNRGIIKTFSNGCDYVSNKGVDTVSVGNTLYCVNKQEGQSLYVKCEPIINFYDPLVFPSSEFDASISQVNEKINQSLAFIRKSDELLHNVNAGKSTTNIMITTIIIVIIVILLSLIAVGLLLY | 79.8 | 95.7 | 83.4 | 0.53 ± 0.07 | 0.80 ± 0.01 | 0.77 ± 0.08 | 0.91 ± 0.06 | 0.98 ± 0.14 | 0.28 ± 0.05
YK-RSV-019 (protein) QNITEEFYQSTCSAVSKGYLGALRTGWYTCVITIELSNIKENKCNGTDAKVKLIKQELDKYKNAVTDLQLLMQSTPATGSGSAICSGVAVSKVLHLEGEVNKIKSALLSTNKAVVSLSNGVSVCTFKVLDLKNYIDKQLLPIVNKQSCSIPNIEIVIEFQQKNNRLLEITREFSVNAGVTTPVSTYMLTNSELLSLINDMPITNDQKKLMSNNVQIVRQQSYSIMSIIKEEVLAYVVQLPLYGVIDTPCWKLHTSPLCTTNTKEGSNICLTRTDRGWYCDNAGSVSFFPQAETCKVQSNRVFCDTMNSRTLPSEVNLCNVDIFNPKYDCKIMTSKTDVSSSVITSLGAIVSCYGKTKCTASNKNRGIIKTFSNGCDYVSNKGVDTVSVGNTLYCVNKQEGQSLYVKGEPIINFYDPLVFPSSEFDASISQVNEKINQSLAFIRKSDELLHNVNAGKSTTNIMITTIIIVIIVILLSLIAVGLLLY | 84.5 | 93.5 | 90.4 | 0.63 ± 0.04 | 0.58 ± 0.05 | 0.81 ± 0.04 | 0.77 ± 0.05 | 0.88 ± 0.09 | 0.37 ± 0.08
YK-RSV-029 (protein) QNICEEFYQSTCSAVSKGYLGALRTGWYTSVITIELSNIKENKCNGTDAKVKLIKQELDKYKNAVTDLQLLMQSTPATGSGSAIASGVAVSKVLHLEGEVNKIKSALLSTNKAVVSLSNGVSVLTFKVLDLKNYIDKQLLPILNKQSCSIPNIETVIEFQQKNNRLLEITREFSVNAGVTTPVSTYMLTNSELLSLINDMPITNDQKKLMSNNVQIVRQQSYSIMSIIKEEVLAYVVQLPLYGVIDTPCWKLHTSPLCTTNTKEGSNICLTRTDRGWYCDNAGSVSFFPQAETCKVQSNRVFCDTMNSRTLPSEVNLCNVDIFNPKYDCKIMTSKTDVSSSVITSLGAIVSCYGKTKCTASNKNRGIIKTFSNGCDYVSNKGVDTVSVGNTLYYVNKQEGCSLYVKGEPIINFYDPLVFPSDEFDASISQVNEKINQSLAFIRKSDELLHNVNAGKSTTNIMITTIIIVIIVILLSLIAVGLLLY | 79.6 | 91.8 | 86.7 | 0.40 ± 0.01 | 0.57 ± 0.08 | 0.61 ± 0.05 | 0.63 ± 0.03 | 0.82 ± 0.01 | 0.32 ± 0.06
YK-RSV-032 (protein) QNITEEFYCSTCSAVSKGYLGALRTGWYTSVITIELSNIKENKCNGTDAKVKLIKQELDKYKNAVTDLQLLMQSTPATGSGSAIASGVAVSKVLHLEGEVNKIKSALLSTNKAVVSLSNGVSVLTFKVLDLKNYIDKQLLPILNKQSCSIPNIETVIEFQQKNNRLLEITREFSVNAGVTTPVSTYMLTNSELLSLINDMPITNDQKKLMSNNVQIVRQQSYSIMSIIKEEVLAYVVQLPLYGVIDTPCWKLHTSPLCTTNTKEGSNICLTRTDRGWYCDNAGSVSFFPQAETCKVQSNRVFCDTMNSRTLPSEVNLCNVDIFNPKYDCKIMTSKTDVSSSVITSLGAIVSCYGKTKCTASNKNRGIIKTFSNGCDYVSNKGVDTVSVGNTLYYVNKQEGQSLYVCGEPIINFYDPLVFPSDEFDASISQVNEKINQSLAFIRKSDELLHNVNAGKSTTNIMITTIIIVIIVILLSLIAVGLLLY | 86.1 | 90.8 | 94.8 | 0.37 ± 0.02 | 0.78 ± 0.02 | 0.66 ± 0.14 | 1.01 ± 0.35 | 0.98 ± 0.06 | 0.34 ± 0.08
YK-RSV-034 (protein) CNITEEFYQSTCSAVSKGYLGALRTGWYTSVITIELSNIKENKCNGTDAKVKLIKQELDKYKNAVTDLQLLMQSTPATGSGSAIASGVAVSKVLHLEGEVNKIKSALLSTNKAVVSLSNGVSVLTFKVLDLKNYIDKQLLPILNKQSCSIPNIETVIEFQQKNNRLLEITREFSVNAGVTTPVSTYMLTNSELLSLINDMPITNDQKKLMSNNVQIVRQQSYSIMSIIKEEVLAYVVQLPLYGVIDTPCWKLHTSPLCTTNTKEGSNICLTRTDRGWYCDNAGSVSFFPQAETCKVQSNRVFCDTMNSRTLPSEVNLCNVDIFNPKYDCKIMTSKTDVSSSVITSLGAIVSCYGKTKCTASNKNRGIIKTFSNGCDYVSNKGVDTVSVGNTLYYVNCQEGQSLYVKGEPIINFYDPLVFPSDEFDASISQVNEKINQSLAFIRKSDELLHNVNAGKSTTNIMITTIIIVIIVILLSLIAVGLLLY | 82.5 | 90.7 | 91.0 | 0.34 ± 0.15 | 0.68 ± 0.07 | 0.84 ± 0.14 | 0.81 ± 0.09 | 0.91 ± 0.04 | 0.37 ± 0.07
YK-RSV-035 (protein) QCITEEFYQSTCSAVSKGYLGALRTGWYTSVITIELSNIKENKCNGTDAKVKLIKQELDKYKNAVTDLQLLMQSTPATGSGSAIASGVAVSKVLHLEGEVNKIKSALLSTNKAVVSLSNGVSVLTFKVLDLKNYIDKQLLPILNKQSCSIPNIETVIEFQQKNNRLLEITREFSVNAGVTTPVSTYMLTNSELLSLINDMPITNDQKKLMSNNVQIVRQQSYSIMSIIKEEVLAYVVQLPLYGVIDTPCWKLHTSPLCTTNTKEGSNICLTRTDRGWYCDNAGSVSFFPQAETCKVQSNRVFCDTMNSRTLPSEVNLCNVDIFNPKYDCKIMTSKTDVSSSVITSLGAIVSCYGKTKCTASNKNRGIIKTFSNGCDYVSNKGVDTVSVGNTLYYVNKCEGQSLYVKGEPIINFYDPLVFPSDEFDASISQVNEKINQSLAFIRKSDELLHNVNAGKSTTNIMITTIIIVIIVILLSLIAVGLLLY | 79.6 | 91.4 | 87.1 | 0.21 ± 0.06 | 0.39 ± 0.02 | 0.39 ± 0.05 | 0.57 ± 0.03 | 0.82 ± 0.01 | 0.31 ± 0.07
